Laboratory results: paper doi:10.1101/2024.03.06.583760 (bioRxiv, 2024)
“And” between values parts separate entries of the source, which are not always exact repeats. Equal entries are not always repeated.

Molecular target: the molecule itself
Assay: cryo-EM 2D classification

B1: α-latrotoxin (natural protein)
chain: EGEDLTLEEKAEICSELELQQKYVDIASNIIGDLSSLPIAGKIAGTIAAAAMTATHVASGRLDIEQTLLGCSDLPFDQIKEVLENRFNEIDRKLDSHSAALEEITKLVEKSISVVEKTRKQMNKRFDEVMKSIQDAKVSPIISKINNFARYFDTEKERIRGLKLNDYILKLEEPNGILLHFKESRTPTDDSLQAPLFSIIEEGYAVPKSIDDELAFKVLYALLYGTQTYVSVMFFLLEQYSFLANHYYEKGYLEKYDEYFNSLNNVFLDFKSSLVGTGTSNNEGLLDRVLQVLMTVKNSEFLGLEKNGVDEMLNEKINLFNKIKEEIEGKQKMTLSETPENFAQISFDKDITTPIGDWRDGREVRYAVQYASETLFSKISHWSDPVSVREKACPTLRMPVDQTRRNVLVFRKFDSSKPQLVGEITPYLSNFIDIDRDLYNAASNPDSAVGFKEFTKLNYDGANIRATFDHGRTVFHAAAKSGNDKIMFGLTFLAKSTELNQPDKKGYTPIHVAADSGNAGIVNLLIQRGVSINSKTYHFLQTPLHLAAQRGFVTTFQRLMESPEININERDKDGFTPLHYAIRGGERILEAFLNQISIDVNAKSNTGLTPFHLAIIKNDWPVASTLLGSKKVDINAVDENNITALHYAAILGYLETTKQLINLKEINANVVSSPGLLSALHYAILYKHDDVASFLMRSSNVNVNLKALGGITPLHLAVIQGRKQILSLMFDIGVNIEQKTDEKYTPLHLAAMSKYPELIQILLDQGSNFEAKTNSGATPLHLATFKGKSQAALILLNNEVNWRDTDENGQMPIHGAAMTGLLDVAQAIISIDATVVDIEDKNSDTPLNLAAQNSHIDVIKYFIDQGADINTRNKKGLAPLLAFSKKGNLDMVKYLFDKNANVYIADNDGMNFFYYAVQNGHLNIVKYAMSEKDKFEWSNTDNNRRDECPNEECAISHFAVCDAVQFDRIEIVKYFVGTLGNFAICGPLHQAARYGHLDIVKYLVEEEFLSVDGSKTDTPLCYASENGHFTVVQYLVSNGAKVNHDCGNGMTAIDKAITKNHLQVVQFLAANGVDFRRKNSRGTTPFLTAVAENALHIAEYLIREKRQDININEQNVDKDTALHLAVYYKNLQMIKLLIKYGIDVTIRNAYDKTALDIAIDAKFSNIVEYLKTKSGKFRR
  stoichiometry N: 2 and 3 and 4
